# According to the supplement of paper PMC9170038:
# Test system: MS2 coat protein
# Assay: apparent KD of MS2 coat protein; designed switch direction (-1 OFF switch, 1 ON switch): -1; higher = weaker reporter binding
# Outline: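 Designed RNA switches with common flanks were transcribed on Illumina chips by stalled E. coli RNA polymerase and titrated with SNAP-549-labelled MS2 coat protein, from 0.7 or 1.5 nM doubling to 3 µM, in Tris-HCl pH 7.5 buffer with KCl, MgCl2, BSA, DTT, tRNA and Tween-20. Steps lasted 0.8–1.5 h (lowest) to 10–20 min (highest). Titrations ran without input, with 200 uM small-molecule ligand, or with an oligonucleotide input. Normalised cluster fluorescence was curve-fitted, and apparent KD is the per-design median over clusters.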
# [1] = input ligand: microRNA oligo, concentration not stated
# [2] = Eterna round: R95, input ligand: microRNA oligo, concentration not stated
# [3] = Eterna round: R95, input ligand: FMN 200 uM
# [4] = Eterna round: R95, input ligand: none
Sequence,apparent KD of MS2 coat protein (input ligand: FMN 200 uM) [nM],apparent KD of MS2 coat protein [1] [nM],apparent KD of MS2 coat protein (input ligand: none) [nM],apparent KD of MS2 coat protein [2] [nM],apparent KD of MS2 coat protein [3] [nM],apparent KD of MS2 coat protein [4] [nM]
"AAAAAAAACAAGCUUAGGGACAUGAGGAUCACCCAUGUUCGUCUUAUAAAAAUAAAAAUAAAAAACAAAAAAUAAAA [Sensor V2: 53] (Eterna round: R96, puzzle: Sensor v2, turn-off variant)",22.5,128,24.1,,,
"AAAAAAAGACAAGAGGAGAAUCGUCUUAAAAAUCCUCAGACAUGAGGAUCACCCAUGUAAAAUGAUCGAAAGAUCAA [Mat - Sensor v2 - ver2 - JL mod - D42] (Eterna round: R96, puzzle: Sensor v2, turn-off variant 2)",39.7,40,40.6,,,
"AAAAAACAAGCUUUUUGAAACAUGAGGAUCACCCAUGUCUUAUAAAAUAAAAAUAAAAAUAAAAAUAAAAUAAAAAA [Sensor V2: 80 Random] (Eterna round: R96, puzzle: Sensor v2, turn-off variant)",36.2,67.9,37.4,,,
AAAAAACAAGGAUAUACGAAGGAUGGUUAUCUUAAUUUUUGACAUGAGGAUCACCCAUGUAGAAGGUGUUAAAA [JR_Exclusion2_Sub010] (puzzle: Exclusion 2),,,,34.8,,
"AAAAAACAUGAGGAUCACCCAUGUAAGGAUAUCUAAAAUAAAAGAAAAAUAAAGAAAAGGAGAAGGUACAAGGA [JL wbt mod 25] (Eterna round: R96, puzzle: Exclusion 1)",32.5,23.4,29.8,,,
"AAAAAACAUGAGGAUCACCCAUGUGAGGAUAUGCUAAAAAAAUCCGCAUGAAAAAAUAGCAGAAGGCACAUAAA [PK2] (Eterna round: R96, puzzle: Exclusion 1)",93.5,27.2,36.2,,,
"AAAAAGCUGAGAGGAUAUGGUGCCGAAACGGUGCUAGAAGGCUUUGCAAAAAAACAUGAGGAUCACCCAUGUUCAUGUAGAGAA [AK ExNG1-1.2] (Eterna round: R96, puzzle: Exclusion NG 1)",15.8,11.8,19.6,,,
AAAACACAUGAGGAUCACCCAUGUGAGGAUAUGUCCAUAUUCGGCAAAUCGGAUAUGGACAGAAGGCACAUAAA [JR_Exclusion1_Sub014] (puzzle: Exclusion 1),,,,48.9,54.7,39.7
"AAAACGUCAGGAUAUCCAAUAUAUGACAUGAGGAUCACCCAUGUUUCCACUCGUACCUCCGGAGAAGGGACUAAUA [Ex5 #84] (Eterna round: R97, puzzle: Exclusion 5)",34.7,,38.2,,,
"AAAACGUGAGGAUAUACUGUGAGAUCUCAAGGUACGUUAAGACAUGAGGAUCACCCAUGUAGAAGGCGCCAAAA [Eternabot (Original) Solution 15] (Eterna round: R97, puzzle: Exclusion 2)",57.3,,30.9,,,
"AAAACUGCCCAUAACCGCAAGCUUUUUGCUUGUCUUACCACAUGAGGAUCACCCAUGUGACAUGGGCUCCUUAUAAA [Arixeerat] (puzzle: Sensor v3, turn-off variant 2)",,,,8.53,14.1,12
"AAAACUGCCCAUGACCGCAAGCUUUUUGCUUGUCUUACCACAUGAGGAUCACCCAUGUGUCAUGGGCUCCUUAUAAA [Tisoanor] (puzzle: Sensor v3, turn-off variant 2)",,,,10.8,12.7,11.3
AAAAGAGGAGGAUAUGCAAACAAUGUAAAAGUGAAAGUAAAACAUGAGGAUCACCCAUGUAGAAGGCCUGAAAA [nah] (puzzle: Exclusion 2),,,,20.4,20,20.2
"AAAAGGAUAGGAUAUGCUCUAGGACACUUGAGGAUCACCCAAGUGUCGGCAAGGUCCUAGGCAGAAGGAUCUGGCA [Onordibi] (Eterna round: R97, puzzle: Exclusion 5)",88.3,,29.9,,,
"AAAAGGCAGGGAGGAUAUGCUUGCCUGGGUCGUCUUCAAACAUGAGGAUCACCCAUGUAGUCGACGCAGAAGGCCCUCAAAGAA [Mat - Exclusion NG 2 - Mod of JL - D62] (Eterna round: R96, puzzle: Exclusion NG 2)",37.7,40.8,57.2,,,
"AAAAGGCGAGGAUAUACAGACCUCGGAAAAUCAAAGCAGAGACAUGAGGAUCACCCAUGUAGAAGGCGCAACAA [Geerbiorer] (Eterna round: R97, puzzle: Exclusion 2)",20.8,,15.9,,,
AAAAUAAAAGUCAGGAUAUUCCUACAACGACUAAGGAAGAAGGGACAUGAGGAUCACCCAUGUGGUCUUCCGAA [Onesti] (puzzle: Brourd's mod of Exclusion 4),,,,17.8,42.5,15.1
"AAAAUAAAGAUGCCUUUAAACAUGAGGAUCACCCAUGUGAGUAAGGAUAUCGGAACCAAUCGCGACGAGAAGGUACUCGCGUGU [Relela] (Eterna round: R96, puzzle: Exclusion NG 3)",12.1,11.1,15.7,,,
"AAAAUGGUCUAGGAUAUGACAAAUCUGAGCACGUCAGAAGGAGACACAUGAGGAUCACCCAUGUGGGUGCGAAA [Erteedza] (Eterna round: R96, puzzle: Exclusion 6)",,29.3,,,,
AAAAUGGUCUAGGAUAUGACAAAUCUGAGCACGUCAGAAGGAGACACAUGAGGAUCACCCAUGUGGGUGCGAAA [Erteedza] (puzzle: Exclusion 6),,,,31.8,324,35.2
AAAAUGUAAGGAUAUAGCCGGAACCCAGGGUUUGGACCCGGCUAGAAGGUACAUGAGGAUCACCCAUGUAAGAA [Excls4-VII] (puzzle: Exclusion 4),,,,17.4,,
"AAAAUGUCAGGAUAUUGUUAGUUUAGUUGUUUGUAUUAGUUCGAGAAGGGACAUGAGGAUCACCCAUGUGAAAA [Ex4 #68] (Eterna round: R97, puzzle: Exclusion 4)",42.5,,35.8,,,
"AAACAAACGGCAGGAUAUCCUCGUCAACACCACAAGUCCACUCGGACAUGAGGAUCACCCAUGUAGGAGAAGGGUCAGAAAUAC [ExNG2 4th] (Eterna round: R96, puzzle: Exclusion NG 2)",37.2,24.6,37.1,,,
AAACAGGGAGGAUAUACAUAGAUCCUCUAACCUAAUAGGUCACAUGAGGAUCACCCAUGUAGAAGGCCCUUAGG [Biinbebi] (puzzle: Exclusion 2),,,,14.3,,
AAACAGGGAGGAUAUACAUAGAUCCUCUAACCUAAUUGGUCACAUGAGGAUCACCCAUGUAGAAGGCCCUUAGG [Enquanes] (puzzle: Exclusion 2),,,,13.6,,
AAACCACAUGAGGAUCACCCAUGUGAGGAUAUGAUACUAUGUACUUCGGUACAUAGUAUCAGAAGGCAUAUGAA [Ex1-3: 48] (puzzle: Exclusion 1),,,,24.4,,
